Measured values from the Immune Epitope Database (IEDB).

How the values were obtained:
Test in all cases: IEDB peptide-MHC binding, purified MHC/competitive/radioactivity; ≥ and ≤ were set here for values at or beyond the usual limits of such assays
Conditions in all cases: source organism: Hepatitis delta virus
[1] = target: HLA-B*18:01
[2] = target: HLA-B*44:02
[3] = target: HLA-B*44:03
[4] = target: HLA-B*35:01
[5] = target: HLA-B*07:02
[6] = target: HLA-A*02:05
[7] = target: HLA-B*52:01
[8] = target: HLA-B*58:01
[9] = target: HLA-B*27:05

Sequence | IC50 [4] [µM] | IC50 [5] [µM] | IC50 [6] [µM] | IC50 [7] [µM] | further results
DDNPWLGNI |  |  |  |  | IC50 [1]: ≥ 50 µM; IC50 [2]: 35.1 µM; IC50 [3]: 9.19 µM
DRGFPWDILF | ≥ 50 | ≥ 50 | ≥ 50 | 4.68 | 
EENLWLGNI |  |  |  |  | IC50 [1]: 1.99 µM; IC50 [2]: 0.468 µM; IC50 [3]: 0.217 µM
FPWDILFPA | 0.0057 | 0.096 | 9.37 |  | 
FPWDILFPS | 0.027 | 13.5 | 11.7 |  | 
FPWDLLFPA | 0.018 | 0.467 | 4.16 |  | 
FPWDMLFPA | 0.0017 | 0.43 | 5.74 |  | 
NQGIPWDILF | ≥ 50 | ≥ 50 | 7.17 | 1.47 | 
QGFPWDILF | 0.118 | 44.3 | 9.63 | 0.018 | 
QGFPWDLLF | 0.213 | ≥ 50 | 3.41 | 0.135 | 
RGDREFPW |  |  |  |  | IC50 [8]: 0.195 µM
RGSQGFPW |  |  |  |  | IC50 [8]: 0.014 µM
RRKALENKR |  |  |  |  | IC50 [9]: 0.109 µM
RRKALENKS |  |  |  |  | IC50 [9]: 13.6 µM
SQGFPWDILF | ≥ 50 | ≥ 50 | 3.12 | 3.66 | 
TGRQGFPW |  |  |  |  | IC50 [8]: 1.55 µM
